Experimental data published in US7727739B2, “Methods for measuring enzyme activity” (GE Healthcare UK Limited, priority 2002, dated 2010).
Non-standard residues stand in square brackets, D forms with d. Residues, ends and D or L forms follow the SMILES beside them. No end group written: not given here. *: point of attachment. X1 = 6‑(9-oxo-9H-acridin-10-yl)hexanoyl, O=C(CCCCCn1c2ccccc2c(=O)c2ccccc21)*; Sta = CC(C)C[C@H](N)[C@@H](O)CC(=O)O; Phe(NO2) = nitro-phenylalanine; Isovaleryl = CC(C)CC(=O)*; Nva = CCC[C@H](N)C(=O)O

Key:
[1] = Fluorescence lifetime of labelled substrate in protease assay buffers; type: physicochemical
Procedure: A no enzyme control (NEC) having 10 μl of buffer in place of enzyme was used. […] Since the lifetimes of substrate (10.3 ns) and product (13.8 ns) are different it was possible to monitor the appearance of product and disappearance of the substrate, the results are shown in FIG. 2.
A no enzyme control (NEC) having 10 μl of buffer in place of enzyme was used. […] Since the lifetimes of the substrate (11.5 ns) and product (14.5 ns) in Tris buffer are different it was possible to monitor the appearance of product and disappearance of the substrate, the results are shown in FIG. 3.
A no enzyme control (NEC) having 100 μl of buffer in place of enzyme was included.

[2] = Fluorescence lifetime of labelled peptides by time-correlated single photon counting; type: physicochemical; settings: 100 nM in TNC-T buffer pH7.5; excited at 405 nm, detection at 450 nm
Procedure: The lifetime of this solution was determined (2 ml volume in a cuvette) by a time-correlated single photon counting technique (Edinburgh Analytical Instruments FL900CDT spectrometer). Samples were excited at 405 nm using a laser diode, detection being at 450 nm.
The labelled peptide (6-(9-oxo-9H-acridin-10-yl) hexanoic acid- RPKPVENvaWRK) (SEQ ID NO:3) was also diluted to 100 nM in TNC-T buffer and the lifetime was similarly recorded.

[3] = Fluorescence lifetimes stated for labels and typical substrates; type: physicochemical; settings: for lifetime of typical substrate: intact substrate, products 14 nano seconds; for lifetime of fluorescent label: free label
pepsin [4] = target: pepsin (Homo sapiens, UniProt P0DJD7); assay: Inhibition of pepsin activity, fluorescence lifetime protease assay; type: biochemical; settings: pepsin 0.5 ng; 0.1M citrate buffer pH3.6; FIG. 8; read-out: apparent IC50, pepsin digestion of the peptide substrate
Procedure: After incubation at ambient temperature, the fluorescence intensity and lifetime were recorded. Deconvolution using a non-linear least-squares analysis algorithm gave the fluorescence lifetimes.

[5] = system: T1, 6-(9-oxo-9H-acridin-10-yl) hexanoyl-CHLDIIW
T1 sequence: CHLDIIW

[6] = system: T2, 6-(9-oxo-9H-acridin-10-yl) hexanoic acid-Arg-Pro-Lys-Pro-Val-Glu-Nva-Trp-Arg-Lys-NH2
T2 sequence: RPKPVEXWRK

[7] = target: bovine kidney cathepsin D (bovine) (UniProt P80209); assay: cell-based or functional assay
pepsin [8] = assay: cell-based or functional assay
[9] = system: T3, 6-(9-oxo-9H-acridin-10-yl) hexanoyl-Ala-Ala-Phe-Phe-Ala-Ala-Tyr [AAFFAAY]
T3 sequence: AAFFAAY

[10] = target: T4, 6-(9-oxo-9H-acridin-10-yl) hexanoic acid-AAFFAAF-nitro (not fully specified)
T4 chain: AAFFAAF

pepsin (Homo sapiens, UniProt P0DJD7), sequence (P0DJD7 63-388): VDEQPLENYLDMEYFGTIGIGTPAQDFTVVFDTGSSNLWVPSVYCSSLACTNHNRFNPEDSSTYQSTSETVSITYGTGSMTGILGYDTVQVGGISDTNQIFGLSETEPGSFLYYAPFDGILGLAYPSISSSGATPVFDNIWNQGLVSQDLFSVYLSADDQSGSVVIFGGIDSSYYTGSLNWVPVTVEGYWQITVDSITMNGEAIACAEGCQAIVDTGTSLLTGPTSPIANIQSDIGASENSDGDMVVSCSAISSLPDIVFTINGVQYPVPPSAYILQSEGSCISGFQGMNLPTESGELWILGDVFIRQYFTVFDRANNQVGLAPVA
bovine kidney cathepsin D (bovine), sequence (P80209 45-390 limits assumed): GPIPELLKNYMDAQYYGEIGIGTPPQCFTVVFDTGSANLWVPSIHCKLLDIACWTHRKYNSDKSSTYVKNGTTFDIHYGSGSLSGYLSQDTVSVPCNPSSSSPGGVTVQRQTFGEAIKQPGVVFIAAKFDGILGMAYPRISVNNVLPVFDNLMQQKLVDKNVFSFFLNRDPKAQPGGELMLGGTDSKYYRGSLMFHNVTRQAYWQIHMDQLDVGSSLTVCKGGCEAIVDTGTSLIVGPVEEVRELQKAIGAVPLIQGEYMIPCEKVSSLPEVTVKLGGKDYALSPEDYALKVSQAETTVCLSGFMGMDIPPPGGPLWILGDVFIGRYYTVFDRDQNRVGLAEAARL

## 6-(9-oxo-9H-acridin-10-yl) hexanoic acid- AAFFAAF-nitro (X1-AAFFAA[Phe(NO2)]; not fully specified) [acridone-labelled nitro-phenylalanine peptide, thermolysin substrate]
[1]; PBS buffer, pH7, stretched exponential analysis
  fluorescence lifetime of substrate: 2.5 ns

## 6-(9-oxo-9H-acridin-10-yl) hexanoic acid- Arg-Pro-Lys-Pro-Val-Glu-Nva-Trp-Arg-Lys-NH2 (X1-RPKPVE[Nva]WRK-NH2; SMILES CCC[C@H](NC(=O)[C@H](CCC(=O)O)NC(=O)[C@@H](NC(=O)[C@@H]1CCCN1C(=O)[C@H](CCCCN)NC(=O)[C@@H]1CCCN1C(=O)[C@H](CCCNC(=N)N)NC(=O)CCCCCn1c2ccccc2c(=O)c2ccccc21)C(C)C)C(=O)N[C@@H](Cc1c[nH]c2ccccc12)C(=O)N[C@@H](CCCNC(=N)N)C(=O)N[C@@H](CCCCN)C(N)=O) [acridone-labelled MMP-3 substrate peptide]
[2]
  Lifetime (ns): 12.6 ns
[1]; 50 mM Tris buffer pH 7.5, MMP-3 assay, FIG. 6
  fluorescence lifetime of substrate: 10 ns
[3]
  lifetime of typical substrate: 10 nano seconds

## 6-(9-oxo-9H-acridin-10-yl) hexanoic acid- RPKPVE (Arg-Pro-Lys-Pro-Val-Glu) (X1-RPKPVE) [acridone-labelled peptide without tryptophan]
[2]
  Lifetime (ns): 13.9 ns

## 6-(9-oxo-9H-acridin-10-yl) hexanoyl- CHLDIIW (X1-CHLDIIW) [acridone-labelled Asp-n protease substrate]
[3]
  lifetime of typical substrate: 10 nano seconds

## 6-(9-oxo-9H-acridin-10-yl) hexanoyl-Ala-Ala-Phe-Phe-Ala-Ala-Tyr (X1-AAFFAAY) [acridone-labelled protease substrate peptide]
[1]; 50 mM Tris buffer, pH7.8, 10 mM CaCl2
  fluorescence lifetime of substrate: 11.5 ns
[1]; 0.1M citrate buffer, pH3.6, 0.005% Tween-20
  fluorescence lifetime of substrate: 10.3 ns
[3]
  lifetime of typical substrate: 10 nano seconds

## CC(=O)Nc1ccc2c(c1)c(=O)c1ccccc1n2CCCCCC(=O)O [6-(2-(acetamido)-9-oxo-9H-acridin-10-yl) hexanoic acid]
[3]
  lifetime of fluorescent label: 17 ns

## O=C(O)CCCCCn1c2ccccc2c(=O)c2cc(Br)ccc21 [6-(2-bromo-9-oxo-9H-acridin-10-yl) hexanoic acid]
[3]
  lifetime of fluorescent label: 8 ns

## O=C(O)CCCCCNC(=O)c1cccc2c(=O)c3ccccc3[nH]c12 [6-(9-oxo-9H-acridin-4-carboxamido) hexanoic acid]
[3]
  lifetime of fluorescent label: 4 ns

## O=C(O)CCCCCn1c2ccccc2c(=O)c2ccccc21 [6-(9-oxo-9H-acridin-10-yl) hexanoic acid]
[3]
  lifetime of fluorescent label: 14 ns

## CC(C)CC(=O)N[C@H](C(=O)N[C@H](C(=O)N[C@@H](CC(C)C)[C@@H](O)CC(=O)N[C@@H](C)C(=O)N[C@@H](CC(C)C)[C@@H](O)CC(=O)O)C(C)C)C(C)C [Pepstatin A] (Isovaleryl-VV[Sta]A[Sta]-OH)
Pepsin [4]
  IC50: 0.88 nM

## Asp-n
[5]
  protease digestion of labelled substrate (fluorescence intensity and lifetime): illustrates the digestion of 6-(9-oxo-9H-acridin-10-yl) hexanoyl -CHLDIIW (SEQ ID NO:2) with Asp-n

## Matrix Metalloproteinase 3
[6]
  protease digestion of labelled substrate (fluorescence lifetime): enzyme-dependant appearance of the product (14 ns lifetime species) and disappearance of the substrate (10 ns lifetime species)

## Pepstatin A (peptide)
[7]
  cathepsin D enzyme activity at 12 nM pepstatin A against no inhibitor: 5 fold
Pepsin [8]
  inhibition of pepsin digestion of the labelled peptide substrate (fluorescence lifetime), apparent IC50: 0.88 nM

## chymotrypsin
[9]
  protease digestion of labelled substrate (fluorescence lifetime): it was possible to monitor the appearance of product and disappearance of the substrate

## pepsin
[9]
  protease digestion of labelled substrate (fluorescence lifetime): it was possible to monitor the appearance of product and disappearance of the substrate

B1: thermolysin (protein)
chain: ITGTSTVGVGRGVLGDQKNINTTYSTYYYLQDNTRGNGIFTYDAKYRTTLPGSLWADADNQFFASYDAPAVDAHYYAGVTYDYYKNVHNRLSYDGNNAAIRSSVHYSQGYNNAFWNGSQMVYGDGDGQTFIPLSGGIDVVAHELTHAVTDYTAGLIYQNESGAINEAISDIFGTLVEFYANKNPDWEIGEDVYTPGISGDSLRSMSDPAKYGDPDHYSKRYTGTQDNGGVHINSGIINKAAYLISQGGTHYGVSVVGIGRDKLGKIFYRALTQYLTPTSNFSQLRAAAVQSATDLYGSTSQEVASVKQAFDAVGVK
[10]
  protease digestion of labelled substrate (fluorescence lifetime): it was possible to monitor the appearance of product and disappearance of the substrate
